Experimental data taken from patent EP4559937A1 (Universitat de Barcelona, dated 2025).
Each block holds one binder with its values, some of them ahead of it.

Molecular target: T1, Recombinant CD7 protein (ACRO biosystems, Cat No CD-H52H7), labeled with Alexa Fluor 647 (UniProt P09564 26-180, limits assumed, Alexa Fluor 647 NHS Ester label, sites not stated)
T1 construct: Bought protein; also called fluorescently labelled CD7; Alexa Fluor 647-labeled CD7
T1 sequence (looked up): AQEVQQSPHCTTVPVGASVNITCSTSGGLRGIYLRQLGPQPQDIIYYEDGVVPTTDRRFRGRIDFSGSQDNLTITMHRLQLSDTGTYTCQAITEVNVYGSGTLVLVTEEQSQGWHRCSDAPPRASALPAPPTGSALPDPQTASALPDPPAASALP
Assay: microfluidic antibody-affinity profiling (MAAP), Fluidity One-W, hybridoma supernatant with Alexa Fluor 647-labelled CD7, Bayesian inference

Kd: 22.4 nM
B1: 142.24 murine anti-CD7 mAb (antibody, V domains shown)
VH: QLVQSGPEVKKPGETVKISCKASGYSFTHYGVNWVKQAPGKGLKWMGWINTNTGKPTYAEDFKGRFAFSLETSARTAYLQINNLKNEDTATYFCARWSTTVVAPYFDVWGAGTTVTVSS
VL: DILLTQSPAILSVSPGERVSFSCRASQNIGTSIHWFQQRSNGSPSLLIKYASESMSGIPSRFSGSGSGTDFTLSINSVEPEDIADYYCQQSNRWPYTFGGGTKLEIK
notes: Murine monoclonal antibody, tested as hybridoma culture supernatant; also called CD7_142.24

Kd: 52.4 nM
B2: 142.9 murine anti-CD7 mAb (antibody, V domains shown)
VH: QVQLQQSGAELVRPGTSVKISCKASGYTFTNYWLGWVKQRPGHGLEWIGDFYPGSIYTNYNENFQGKATLTADTSSSTAYMQLSSLTSEDSAVYFCAREGDYYGSGHFDYWGQGTTLTVSS
VL: EILLTQSPAIIAASPGEKVTITCSARSSVSYMNWYQQKSGSSPKIWIYGISNLASGVPARFSGSGSGTSFSFTINSMEAEDVAYYYCQLRSSYSRTFGGGTKLEIK
notes: Murine monoclonal antibody, tested as hybridoma culture supernatant; also called CD7_142.9

Kd: 13.6 nM
B3: 124.1D1 murine anti-CD7 mAb (antibody, V domains shown)
VH: DVQLQESGPGLVKPSQSLSLTCTVTGYSITSDYAWNWIRQFPGNKLEWLGYISYSGSTSYNPSLKSRISITRDTSKNQFFLQLNSVTTEDTATYYCAKSQLGRWAMDYWGQGTSVTVSS
VL: DILLTQSPAILSVSPGERVSFSCRASQSIGTSIHWYQQRTNDSPRLLIKYASESISGIPSRFSGSGSGTDFTLNINSVESEDIADYYCQQSISWPLTFGPGTKLELK
notes: Murine monoclonal antibody, tested as hybridoma culture supernatant; also called CD7_124.1D1
